This is an account of results in the RNAGym collection of RNA variant scans (doi:10.1073/pnas.2313332121).

Variants at the floor of the assay were thinned out.

The chains are these.
B1: TPR 5TU (parent)
chain: GGAUCUUCUCGAUCUAACAAAAAAGACAAAUCUGCCACAAAGCUUGAGAGCAUCUUCGGAUGCAGAGGCGGCAGCCUUCGGUGGCGCGAUAGCGCCAACGUUCUCAACUAUGACACGCAAAACGCGUGCUCCGUUGAAUGGAGUUUAUCAUG

Variants of B1 are the subject of this data set. The data set is described as follows: polymerase ribozyme fitness, log enrichment relative to wild type (log ratio); higher = more active; in vitro selection for triplet polymerase activity. In short, it runs like this:
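Mutant libraries of each subunit of a heterodimeric triplet polymerase ribozyme were built by PCR and transcribed. Each library went through one round of in vitro selection in triplicate: annealing with biotinylated primer, partner subunit and triplets, frozen incubation at −7 °C, gel excision of extended constructs, streptavidin-bead capture and RT-PCR. Input and output libraries were Illumina-sequenced; only genotypes with ≥10 input reads and ≥1 read per output were kept. Fitness is log2(genotype enrichment/wild-type enrichment), using inverse-variance-weighted replicate averages.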
For the variant U7G A30C C32G C51U U144A, the “polymerase ribozyme fitness (log ratio)” value was at most -4.2.

As for U7C U9G A17U A26G G84A C116A, the “polymerase ribozyme fitness (log ratio)” value was -3.98.

As for U7C A12G C96U, the “polymerase ribozyme fitness (log ratio)” value was -2.17.

For the variant U7C A17G A23U A52C C76G C85U C93A G128U G152C, the “polymerase ribozyme fitness (log ratio)” value is at most -4.2.

C8A G84A: the “polymerase ribozyme fitness (log ratio)” value is -3.28.

In the case of C8G C14U A29U G50U C54U C75G A119U, the “polymerase ribozyme fitness (log ratio)” value was at most -4.2.

For the variant C8A C18G A40G C54G A73C C87A U90A C114U, the “polymerase ribozyme fitness (log ratio)” value is at most -4.2.

As to U7G G83A A91U C131U, the “polymerase ribozyme fitness (log ratio)” value was -3.4.

In the case of C8A G48A G92C, the “polymerase ribozyme fitness (log ratio)” value is at most -4.2.

U7A A60G C85U U144C: the “polymerase ribozyme fitness (log ratio)” value was -3.61.

Consider U7G A23G U53A C99G C116A C125G A137C, for which the “polymerase ribozyme fitness (log ratio)” value was at most -4.2.

As for U6G G59C C85U G92U U127A, the “polymerase ribozyme fitness (log ratio)” value is at most -4.2.

As to C8A U55A G84U C85A, the “polymerase ribozyme fitness (log ratio)” value is at most -4.2.

Turning to U7G A19G, the “polymerase ribozyme fitness (log ratio)” value was -2.47.

For U7G U130A, the “polymerase ribozyme fitness (log ratio)” value is -4.18.

As for U7G G25C A60G C93U C123U, the “polymerase ribozyme fitness (log ratio)” value was at most -4.2.

For U6G U55A, the “polymerase ribozyme fitness (log ratio)” value turned out to be 0.402.

On to C8G A21C G94C C99A, for which the “polymerase ribozyme fitness (log ratio)” value was at most -4.2.

In the case of U6G U31C G50A A147C, the “polymerase ribozyme fitness (log ratio)” value was -2.65.

With U7G U45A C57U C76A G83A G84A, the “polymerase ribozyme fitness (log ratio)” value was at most -4.2.

Regarding U7G C63G C76G C93G A97U C99G A106U, the “polymerase ribozyme fitness (log ratio)” value was at most -4.2.

For the variant U7G C75A G84A G94U A106U A120C, the “polymerase ribozyme fitness (log ratio)” value is at most -4.2.

On to U6G G58C C131A, for which the “polymerase ribozyme fitness (log ratio)” value is -2.15.

On to U7C U9G C54U A107C U127A, for which the “polymerase ribozyme fitness (log ratio)” value is at most -4.2.

Consider C8A G58C, for which the “polymerase ribozyme fitness (log ratio)” value is -4.1.

For the variant C8A G25U U31A U82C C118G U145C, the “polymerase ribozyme fitness (log ratio)” value was at most -4.2.

As to C8A G11C A29U C95G, the “polymerase ribozyme fitness (log ratio)” value is at most -4.2.

C8G C18G C57G G83U C118U G128A: the “polymerase ribozyme fitness (log ratio)” value was at most -4.2.

With U7G A21G C57G U127G U130G C131U U135G U148A, the “polymerase ribozyme fitness (log ratio)” value is at most -4.2.

Regarding U7G A41U C43U U82G G92U U146A, the “polymerase ribozyme fitness (log ratio)” value was at most -4.2.

U7A C14A A23C C75G C85U: the “polymerase ribozyme fitness (log ratio)” value was at most -4.2.

On to U7C C18G G94A G117C, for which the “polymerase ribozyme fitness (log ratio)” value was -3.67.

On to U7C C38U C95A A119U, for which the “polymerase ribozyme fitness (log ratio)” value was -2.61.

In the case of U7A U55A, the “polymerase ribozyme fitness (log ratio)” value was -3.25.

Consider C8G A47C C54G, for which the “polymerase ribozyme fitness (log ratio)” value is at most -4.2.

On to C8A G92C, for which the “polymerase ribozyme fitness (log ratio)” value is -3.68.

Turning to U7A G83A A121G U145G U148G, the “polymerase ribozyme fitness (log ratio)” value is at most -4.2.

For the variant C8G A30G G48A C69G G86A G143U, the “polymerase ribozyme fitness (log ratio)” value is -4.06.

In the case of U7A A17C A142C, the “polymerase ribozyme fitness (log ratio)” value was -3.31.

For U6G G48U G58A C76G U82C C93U A122C A138G A142G, the “polymerase ribozyme fitness (log ratio)” value was at most -4.2.

U7G G11C U33C A64U C96A A122G G124A G140U: the “polymerase ribozyme fitness (log ratio)” value is at most -4.2.

As for U6G U53C G92C U144C, the “polymerase ribozyme fitness (log ratio)” value is -1.5.

U7C G92C: the “polymerase ribozyme fitness (log ratio)” value is -2.73.

As to C8A A49G G74A G86U G141U U148G, the “polymerase ribozyme fitness (log ratio)” value was at most -4.2.

Turning to C8A C32G A40U A52U A73U A91U, the “polymerase ribozyme fitness (log ratio)” value is at most -4.2.

U7A C43U A49G A110G: the “polymerase ribozyme fitness (log ratio)” value is at most -4.2.

As for U7A U31G G81C G84U C95U A107G G128U A137G, the “polymerase ribozyme fitness (log ratio)” value is at most -4.2.

Consider U7G A16C, for which the “polymerase ribozyme fitness (log ratio)” value is -2.38.

For U7A G94A, the “polymerase ribozyme fitness (log ratio)” value was -3.07.

Regarding U7A U111G, the “polymerase ribozyme fitness (log ratio)” value is -4.19.

Turning to U7A C93G A113U A138C, the “polymerase ribozyme fitness (log ratio)” value was at most -4.2.

As for C8A U13G A21G A28G G68U G81A C118G G143U, the “polymerase ribozyme fitness (log ratio)” value is at most -4.2.

Regarding C8A U9C A30U C87U C95U C129A, the “polymerase ribozyme fitness (log ratio)” value was at most -4.2.

Take U7C A19C C57G C85U C96U U148A: the “polymerase ribozyme fitness (log ratio)” value is at most -4.2.

As for C8A A73U G83A C93U A138C U145C, the “polymerase ribozyme fitness (log ratio)” value is at most -4.2.

Regarding U7G A23C A24U C54G, the “polymerase ribozyme fitness (log ratio)” value is at most -4.2.

As to C8A A12G C85U C103G G124U C129A, the “polymerase ribozyme fitness (log ratio)” value is at most -4.2.

On to C8A A17G U55A C93A G126U G140A, for which the “polymerase ribozyme fitness (log ratio)” value is at most -4.2.

As for C8A U55A G88A G133C G136A U139A G143C, the “polymerase ribozyme fitness (log ratio)” value is at most -4.2.

Turning to U7C A24U C96U A107G C125G U144C U151C, the “polymerase ribozyme fitness (log ratio)” value is -4.07.

For the variant C8A A17G U78G G94A G133A U134A, the “polymerase ribozyme fitness (log ratio)” value was at most -4.2.

With C8A C27U U56C U111C A138G, the “polymerase ribozyme fitness (log ratio)” value was at most -4.2.

With C8A A12U C35G G92U C103G, the “polymerase ribozyme fitness (log ratio)” value is -3.99.

For U7G A23C A28U C38G A121G, the “polymerase ribozyme fitness (log ratio)” value is at most -4.2.

Consider U7C C18G C43G G48A G58C C63U C76G, for which the “polymerase ribozyme fitness (log ratio)” value is at most -4.2.

C8G A30G C35U G65U G94U U135C U144G: the “polymerase ribozyme fitness (log ratio)” value is at most -4.2.

C8A G58C U82A A98G G136U: the “polymerase ribozyme fitness (log ratio)” value is at most -4.2.

Turning to U7A C75U G94C A122G U145A, the “polymerase ribozyme fitness (log ratio)” value is -3.63.

Consider U7C A20C A49C U77C A91U, for which the “polymerase ribozyme fitness (log ratio)” value was at most -4.2.

For the variant C8G A23U A30U G42C G83C A97U, the “polymerase ribozyme fitness (log ratio)” value is at most -4.2.

Turning to C8A C85U, the “polymerase ribozyme fitness (log ratio)” value is -2.6.

For U7A A17U A19C C38U G58U G86A G92C, the “polymerase ribozyme fitness (log ratio)” value is at most -4.2.

Consider U7G A30G C32A A39U A60G C96U G126U G140U, for which the “polymerase ribozyme fitness (log ratio)” value was -3.86.

For the variant C8G A17G G25A C54G G71C C87U U90A C96U C132U, the “polymerase ribozyme fitness (log ratio)” value was at most -4.2.

As to U7G U53A A147G, the “polymerase ribozyme fitness (log ratio)” value is at most -4.2.

In the case of U7C C10U U55A G62A G65C U78G C96A, the “polymerase ribozyme fitness (log ratio)” value is at most -4.2.

Take U7A C85U: the “polymerase ribozyme fitness (log ratio)” value was -2.9.

Regarding C8G A24U A29G C54G C57U G94A A98G U135G, the “polymerase ribozyme fitness (log ratio)” value was at most -4.2.

Take C8A U53A G81C C85G C108U A138G A147G A150U G152U: the “polymerase ribozyme fitness (log ratio)” value was -3.5.

Regarding C8G C14A A39C G74U G143U, the “polymerase ribozyme fitness (log ratio)” value was at most -4.2.

In the case of U7C C18U U31A G81A G84U, the “polymerase ribozyme fitness (log ratio)” value is -3.99.

On to U7C A17G A119U, for which the “polymerase ribozyme fitness (log ratio)” value is -3.03.

With U7G A23G, the “polymerase ribozyme fitness (log ratio)” value was at most -4.2.
